In article PMC8872793:

Target: Mtb UvrD1 WT (Mycobacterium tuberculosis H37Rv, UniProt P9WMQ1 1-771)
Test: tryptophan fluorescence dissociation kinetics

Chain of Mtb UvrD1 WT (P9WMQ1 whole entry): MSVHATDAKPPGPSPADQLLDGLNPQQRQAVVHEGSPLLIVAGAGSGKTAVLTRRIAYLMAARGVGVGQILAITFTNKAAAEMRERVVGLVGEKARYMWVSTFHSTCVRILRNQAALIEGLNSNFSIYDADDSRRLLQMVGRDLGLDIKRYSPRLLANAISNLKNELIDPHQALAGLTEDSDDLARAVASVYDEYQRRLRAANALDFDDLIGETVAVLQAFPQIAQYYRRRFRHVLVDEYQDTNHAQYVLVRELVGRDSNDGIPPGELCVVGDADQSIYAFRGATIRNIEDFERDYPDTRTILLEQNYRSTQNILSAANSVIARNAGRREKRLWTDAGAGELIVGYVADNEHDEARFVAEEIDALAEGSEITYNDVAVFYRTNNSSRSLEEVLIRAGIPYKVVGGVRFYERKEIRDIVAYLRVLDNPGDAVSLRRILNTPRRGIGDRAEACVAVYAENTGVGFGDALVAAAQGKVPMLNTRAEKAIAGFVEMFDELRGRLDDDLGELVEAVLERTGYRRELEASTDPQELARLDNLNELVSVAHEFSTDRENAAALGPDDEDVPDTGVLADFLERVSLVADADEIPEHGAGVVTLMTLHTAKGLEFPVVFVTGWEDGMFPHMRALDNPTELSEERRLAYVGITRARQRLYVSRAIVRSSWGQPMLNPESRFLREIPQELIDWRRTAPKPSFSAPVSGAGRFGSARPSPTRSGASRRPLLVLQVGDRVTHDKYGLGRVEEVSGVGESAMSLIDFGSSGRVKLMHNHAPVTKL

B1: (dT)100 (ssDNA)
DNA: TTTTTTTTTTTTTTTTTTTTTTTTTTTTTTTTTTTTTTTTTTTTTTTTTTTTTTTTTTTTTTTTTTTTTTTTTTTTTTTTTTTTTTTTTTTTTTTTTTTT
Does B1 bind?
Result: binds
